In patent US20160272683A1 (Novo Nordisk, published 2016):
Each block holds one binder with its values, some of them ahead of it. Numbered stars: 1 amine (or outer) side, 2 acyl side, 3 side chain; on linkers, the order of the positions; unused ones are H or OH. Ends that are not written are not given here. * marks the point of attachment. C20 diacid = O=C(O)CCCCCCCCCCCCCCCCCCC(=O)*; C18 diacid = O=C(O)CCCCCCCCCCCCCCCCC(=O)*; γGlu = O=C(O)[C@H](CCC(=O)[*:2])N[*:1]; AEEA = NCCOCCOCC(=O)O

Biological target: T1, human calcitonin receptor (human, UniProt P30988 25-474)
T1 construct: whole, on cells; also called hCT-R; hCTR
T1 sequence (looked up): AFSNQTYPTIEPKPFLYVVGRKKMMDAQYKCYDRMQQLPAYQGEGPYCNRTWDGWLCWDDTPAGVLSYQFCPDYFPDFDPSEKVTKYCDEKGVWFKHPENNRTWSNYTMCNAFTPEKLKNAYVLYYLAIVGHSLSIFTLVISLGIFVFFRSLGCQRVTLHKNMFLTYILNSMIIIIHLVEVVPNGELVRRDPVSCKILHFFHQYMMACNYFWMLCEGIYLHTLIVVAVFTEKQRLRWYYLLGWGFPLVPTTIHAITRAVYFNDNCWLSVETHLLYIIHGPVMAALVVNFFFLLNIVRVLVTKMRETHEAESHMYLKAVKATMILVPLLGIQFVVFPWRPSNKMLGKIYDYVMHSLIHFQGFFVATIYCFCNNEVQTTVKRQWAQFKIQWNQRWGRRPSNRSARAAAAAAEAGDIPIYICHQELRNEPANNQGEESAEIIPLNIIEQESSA
Assay: whole-cell competition vs 125I-human calcitonin (Assay VIIa)
In short: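 BHK tk'ts 13 cells stably co-expressing human calcitonin receptor and a CRE-luciferase reporter, seeded overnight at 37 °C. Bound tracer counted by scintillation after cold HBSS washes and NaOH/SDS lysis; IC₅₀ from one-site competition fit taken as receptor affinity.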

B1: [N-terminal(C20 diacid-gGlu), des1, 30S, 31G, 33L]mimylin (peptide)
peptide: {C20 diacid-γGlu}-ASELSTAALGRLSAELHELATLPRTETGSGSL-NH2
SMILES: CC(C)C[C@H](NC(=O)[C@H](CO)NC(=O)CNC(=O)[C@H](CO)NC(=O)CNC(=O)[C@@H](NC(=O)[C@H](CCC(=O)O)NC(=O)[C@@H](NC(=O)[C@H](CCCNC(=N)N)NC(=O)[C@@H]1CCCN1C(=O)[C@H](CC(C)C)NC(=O)[C@@H](NC(=O)[C@H](C)NC(=O)[C@H](CC(C)C)NC(=O)[C@H](CCC(=O)O)NC(=O)[C@H](Cc1c[nH]cn1)NC(=O)[C@H](CC(C)C)NC(=O)[C@H](CCC(=O)O)NC(=O)[C@H](C)NC(=O)[C@H](CO)NC(=O)[C@H](CC(C)C)NC(=O)[C@H](CCCNC(=N)N)NC(=O)CNC(=O)[C@H](CC(C)C)NC(=O)[C@H](C)NC(=O)[C@H](C)NC(=O)[C@@H](NC(=O)[C@H](CO)NC(=O)[C@H](CC(C)C)NC(=O)[C@H](CCC(=O)O)NC(=O)[C@H](CO)NC(=O)[C@H](C)NC(=O)CC[C@H](NC(=O)CCCCCCCCCCCCCCCCCCC(=O)O)C(=O)O)[C@@H](C)O)[C@@H](C)O)[C@@H](C)O)[C@@H](C)O)C(N)=O
notes: also called Ex. #62
IC50: 2.33 nM

B2: [des1, 12H, 30S, 31G]mimylin (peptide)
peptide: ASELSTAALGHLSAELHELATLPRTETGSGSP-NH2
notes: backbone without side chain; also called Ex. #72bb; 72bb
IC50: 4.53 nM

B3: [N-terminal(C20 diacid-gGlu), des1, 30T, 31G, 32T]mimylin (peptide)
peptide: {C20 diacid-γGlu}-ASELSTAALGRLSAELHELATLPRTETGTGTP-NH2
SMILES: CC(C)C[C@H](NC(=O)[C@H](C)NC(=O)[C@H](C)NC(=O)[C@@H](NC(=O)[C@H](CO)NC(=O)[C@H](CC(C)C)NC(=O)[C@H](CCC(=O)O)NC(=O)[C@H](CO)NC(=O)[C@H](C)NC(=O)CC[C@H](NC(=O)CCCCCCCCCCCCCCCCCCC(=O)O)C(=O)O)[C@@H](C)O)C(=O)NCC(=O)N[C@@H](CCCNC(=N)N)C(=O)N[C@@H](CC(C)C)C(=O)N[C@@H](CO)C(=O)N[C@@H](C)C(=O)N[C@@H](CCC(=O)O)C(=O)N[C@@H](CC(C)C)C(=O)N[C@@H](Cc1c[nH]cn1)C(=O)N[C@@H](CCC(=O)O)C(=O)N[C@@H](CC(C)C)C(=O)N[C@@H](C)C(=O)N[C@H](C(=O)N[C@@H](CC(C)C)C(=O)N1CCC[C@H]1C(=O)N[C@@H](CCCNC(=N)N)C(=O)N[C@H](C(=O)N[C@@H](CCC(=O)O)C(=O)N[C@H](C(=O)NCC(=O)N[C@H](C(=O)NCC(=O)N[C@H](C(=O)N1CCC[C@H]1C(N)=O)[C@@H](C)O)[C@@H](C)O)[C@@H](C)O)[C@@H](C)O)[C@@H](C)O
notes: also called Ex. #74
IC50: 1.08 nM

B4: [N-terminal(C20 diacid-gGlu), des1, 30S, 31G, 33S]mimylin (peptide)
peptide: {C20 diacid-γGlu}-ASELSTAALGRLSAELHELATLPRTETGSGSS-NH2
SMILES: CC(C)C[C@H](NC(=O)[C@H](C)NC(=O)[C@H](C)NC(=O)[C@@H](NC(=O)[C@H](CO)NC(=O)[C@H](CC(C)C)NC(=O)[C@H](CCC(=O)O)NC(=O)[C@H](CO)NC(=O)[C@H](C)NC(=O)CC[C@H](NC(=O)CCCCCCCCCCCCCCCCCCC(=O)O)C(=O)O)[C@@H](C)O)C(=O)NCC(=O)N[C@@H](CCCNC(=N)N)C(=O)N[C@@H](CC(C)C)C(=O)N[C@@H](CO)C(=O)N[C@@H](C)C(=O)N[C@@H](CCC(=O)O)C(=O)N[C@@H](CC(C)C)C(=O)N[C@@H](Cc1c[nH]cn1)C(=O)N[C@@H](CCC(=O)O)C(=O)N[C@@H](CC(C)C)C(=O)N[C@@H](C)C(=O)N[C@H](C(=O)N[C@@H](CC(C)C)C(=O)N1CCC[C@H]1C(=O)N[C@@H](CCCNC(=N)N)C(=O)N[C@H](C(=O)N[C@@H](CCC(=O)O)C(=O)N[C@H](C(=O)NCC(=O)N[C@@H](CO)C(=O)NCC(=O)N[C@@H](CO)C(=O)N[C@@H](CO)C(N)=O)[C@@H](C)O)[C@@H](C)O)[C@@H](C)O
notes: also called Ex. #63
IC50: 2.6 nM

B8: [N-terminal(C20 diacid-gGlu), -1E, 1A, 23Y, 30S, 31G]mimylin (peptide)
peptide: {C20 diacid-γGlu}-EAASELSTAALGRLSAELHELATYPRTETGSGSP-NH2
SMILES: CC(C)C[C@H](NC(=O)[C@H](C)NC(=O)[C@H](C)NC(=O)[C@@H](NC(=O)[C@H](CO)NC(=O)[C@H](CC(C)C)NC(=O)[C@H](CCC(=O)O)NC(=O)[C@H](CO)NC(=O)[C@H](C)NC(=O)[C@H](C)NC(=O)[C@H](CCC(=O)O)NC(=O)CC[C@H](NC(=O)CCCCCCCCCCCCCCCCCCC(=O)O)C(=O)O)[C@@H](C)O)C(=O)NCC(=O)N[C@@H](CCCNC(=N)N)C(=O)N[C@@H](CC(C)C)C(=O)N[C@@H](CO)C(=O)N[C@@H](C)C(=O)N[C@@H](CCC(=O)O)C(=O)N[C@@H](CC(C)C)C(=O)N[C@@H](Cc1c[nH]cn1)C(=O)N[C@@H](CCC(=O)O)C(=O)N[C@@H](CC(C)C)C(=O)N[C@@H](C)C(=O)N[C@H](C(=O)N[C@@H](Cc1ccc(O)cc1)C(=O)N1CCC[C@H]1C(=O)N[C@@H](CCCNC(=N)N)C(=O)N[C@H](C(=O)N[C@@H](CCC(=O)O)C(=O)N[C@H](C(=O)NCC(=O)N[C@@H](CO)C(=O)NCC(=O)N[C@@H](CO)C(=O)N1CCC[C@H]1C(N)=O)[C@@H](C)O)[C@@H](C)O)[C@@H](C)O
notes: also called Ex. #83
IC50: 1.57 nM

B9: [N-terminal(C20 diacid-gGlu), des1, 23Y, 30S, 31G, 34G, C-terminal(-)]mimylin (peptide)
peptide: {C20 diacid-γGlu}-ASELSTAALGRLSAELHELATYPRTETGSGSPG-OH
SMILES: CC(C)C[C@H](NC(=O)[C@H](C)NC(=O)[C@H](C)NC(=O)[C@@H](NC(=O)[C@H](CO)NC(=O)[C@H](CC(C)C)NC(=O)[C@H](CCC(=O)O)NC(=O)[C@H](CO)NC(=O)[C@H](C)NC(=O)CC[C@H](NC(=O)CCCCCCCCCCCCCCCCCCC(=O)O)C(=O)O)[C@@H](C)O)C(=O)NCC(=O)N[C@@H](CCCNC(=N)N)C(=O)N[C@@H](CC(C)C)C(=O)N[C@@H](CO)C(=O)N[C@@H](C)C(=O)N[C@@H](CCC(=O)O)C(=O)N[C@@H](CC(C)C)C(=O)N[C@@H](Cc1c[nH]cn1)C(=O)N[C@@H](CCC(=O)O)C(=O)N[C@@H](CC(C)C)C(=O)N[C@@H](C)C(=O)N[C@H](C(=O)N[C@@H](Cc1ccc(O)cc1)C(=O)N1CCC[C@H]1C(=O)N[C@@H](CCCNC(=N)N)C(=O)N[C@H](C(=O)N[C@@H](CCC(=O)O)C(=O)N[C@H](C(=O)NCC(=O)N[C@@H](CO)C(=O)NCC(=O)N[C@@H](CO)C(=O)N1CCC[C@H]1C(=O)NCC(=O)O)[C@@H](C)O)[C@@H](C)O)[C@@H](C)O
notes: also called Ex. #89
IC50: 3.6 nM

B10: [N-terminal(C20 diacid-gGlu), des1, 23Y, 30S, 31G, 34K, C-terminal(-)]mimylin (peptide)
peptide: {C20 diacid-γGlu}-ASELSTAALGRLSAELHELATYPRTETGSGSPK-OH
SMILES: CC(C)C[C@H](NC(=O)[C@H](C)NC(=O)[C@H](C)NC(=O)[C@@H](NC(=O)[C@H](CO)NC(=O)[C@H](CC(C)C)NC(=O)[C@H](CCC(=O)O)NC(=O)[C@H](CO)NC(=O)[C@H](C)NC(=O)CC[C@H](NC(=O)CCCCCCCCCCCCCCCCCCC(=O)O)C(=O)O)[C@@H](C)O)C(=O)NCC(=O)N[C@@H](CCCNC(=N)N)C(=O)N[C@@H](CC(C)C)C(=O)N[C@@H](CO)C(=O)N[C@@H](C)C(=O)N[C@@H](CCC(=O)O)C(=O)N[C@@H](CC(C)C)C(=O)N[C@@H](Cc1c[nH]cn1)C(=O)N[C@@H](CCC(=O)O)C(=O)N[C@@H](CC(C)C)C(=O)N[C@@H](C)C(=O)N[C@H](C(=O)N[C@@H](Cc1ccc(O)cc1)C(=O)N1CCC[C@H]1C(=O)N[C@@H](CCCNC(=N)N)C(=O)N[C@H](C(=O)N[C@@H](CCC(=O)O)C(=O)N[C@H](C(=O)NCC(=O)N[C@@H](CO)C(=O)NCC(=O)N[C@@H](CO)C(=O)N1CCC[C@H]1C(=O)N[C@@H](CCCCN)C(=O)O)[C@@H](C)O)[C@@H](C)O)[C@@H](C)O
notes: also called Ex. #90
IC50: 6.84 nM

The remaining binders from weak to strong by IC50, led by results:

IC50: 62.9 nM
Binder: ASELTTAVLGRLEAELHELTTLPRTETGTGTP-NH2 (backbone without side chain) [[des1, 6T, 9V, 14E, 21T, 30T, 31G, 32T]mimylin]

IC50: 15.3 nM
B5: [des1, 6T, 9V, 30T, 31G, 32T]mimylin (peptide)
peptide: ASELTTAVLGRLSAELHELATLPRTETGTGTP-NH2
notes: backbone without side chain; also called Ex. #95bb; 95bb

IC50: 0.52 nM
B6: [des1, 5V, 9V, 30S, 31G]mimylin (peptide)
peptide: ASEVSTAVLGRLSAELHELATLPRTETGSGSP-NH2
notes: backbone without side chain; also called Ex. #86bb; 86bb

IC50: 0.3 nM
B7: [N-terminal(C18 diacid-gGlu-2xOEG), des1, 4G, 9V, 15Q, 21Q, 23Y, 30S, 31G, 32T, 33Y]mimylin (peptide)
peptide: {C18 diacid-γGlu-AEEA-AEEA}-ASGLSTAVLGRLSQELHELQTYPRTETGSGTY-NH2
SMILES: CC(C)C[C@H](NC(=O)CNC(=O)[C@H](CO)NC(=O)[C@H](C)NC(=O)COCCOCCNC(=O)COCCOCCNC(=O)CC[C@H](NC(=O)CCCCCCCCCCCCCCCCC(=O)O)C(=O)O)C(=O)N[C@@H](CO)C(=O)N[C@H](C(=O)N[C@@H](C)C(=O)N[C@H](C(=O)N[C@@H](CC(C)C)C(=O)NCC(=O)N[C@@H](CCCNC(=N)N)C(=O)N[C@@H](CC(C)C)C(=O)N[C@@H](CO)C(=O)N[C@@H](CCC(N)=O)C(=O)N[C@@H](CCC(=O)O)C(=O)N[C@@H](CC(C)C)C(=O)N[C@@H](Cc1c[nH]cn1)C(=O)N[C@@H](CCC(=O)O)C(=O)N[C@@H](CC(C)C)C(=O)N[C@@H](CCC(N)=O)C(=O)N[C@H](C(=O)N[C@@H](Cc1ccc(O)cc1)C(=O)N1CCC[C@H]1C(=O)N[C@@H](CCCNC(=N)N)C(=O)N[C@H](C(=O)N[C@@H](CCC(=O)O)C(=O)N[C@H](C(=O)NCC(=O)N[C@@H](CO)C(=O)NCC(=O)N[C@H](C(=O)N[C@@H](Cc1ccc(O)cc1)C(N)=O)[C@@H](C)O)[C@@H](C)O)[C@@H](C)O)[C@@H](C)O)C(C)C)[C@@H](C)O
notes: also called Ex. #121
